Test results published in patent US20210070882A1.

Biological target: human CD19 (human) (UniProt P15391)
Assay: cell-based or functional assay

Sequence of human CD19 (human) (P15391 20-556): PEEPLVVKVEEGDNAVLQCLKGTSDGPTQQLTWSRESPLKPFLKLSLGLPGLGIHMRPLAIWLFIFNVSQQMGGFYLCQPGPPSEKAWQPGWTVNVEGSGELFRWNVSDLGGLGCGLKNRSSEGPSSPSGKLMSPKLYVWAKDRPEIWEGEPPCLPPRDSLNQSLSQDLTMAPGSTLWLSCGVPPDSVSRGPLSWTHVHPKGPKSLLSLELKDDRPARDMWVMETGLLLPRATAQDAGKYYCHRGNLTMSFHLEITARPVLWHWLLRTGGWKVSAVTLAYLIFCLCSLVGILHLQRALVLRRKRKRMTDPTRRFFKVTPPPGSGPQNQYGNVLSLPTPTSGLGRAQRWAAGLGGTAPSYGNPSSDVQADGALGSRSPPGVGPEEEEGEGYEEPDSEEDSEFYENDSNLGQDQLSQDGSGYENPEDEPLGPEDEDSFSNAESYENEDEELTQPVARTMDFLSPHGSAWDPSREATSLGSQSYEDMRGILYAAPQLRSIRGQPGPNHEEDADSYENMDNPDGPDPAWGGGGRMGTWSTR

Blinatumomab (bispecific antibody)
T cell activation EC50 upon Z-138 lysis, CD25/CD4: 3.7 pM | T cell activation EC50 upon Z-138 lysis, CD25/CD8: 4.5 pM | T cell activation EC50 upon Z-138 lysis, CD69/CD4: 2.3 pM | T cell activation EC50 upon Z-138 lysis, CD69/CD8: 2.4 pM | Tumor cell lysis Z-138 cells (21 h), EC50: 0.26 ng/mL | Tumor cell lysis Z-138 cells (21 h), EC50 (pM): 4.8 pM
